Reference: PMC9167512, “Intradiol ring cleavage dioxygenases from herbivorous spider mites as a new detoxification enzyme family in animals” (BMC Biology, 2022)

B1: TuDOG11 (Tetranychus urticae) (protein)
chain: HLQRPGKFLPHDRSIVDCARYKREANQHTCVLAPFTTEGPYFLPDDLERSDITDGQTGVNLDLNLKLTNAKDCSPLSNYFVHVWQANALGHYSGVNELFPVGFRPKPISGERFLRGYQKTNEDGEVNFKTIIPGWYVGRCIHIHVEVYAKNNTDGNAVNYIGQLYFERDIPSSLRLVEPYSTNVNEITLNDSDGVYLLTHGNDTLIDLVPQESGFRTDYIVAIDPDVSIKYDWLDI
notes: signal peptide removed, N-terminal 6xHis kept, pJExpress 411, E. coli BL21(DE3), codon optimized (ATUM), 25-37 kDa
B2: TuDOG15 (Tetranychus urticae) (protein)
chain: DHERPGKYLEHDSTVINCARYKREANQHSCVLAPYAVEGPYFLPDDLERSNLAEDKVGVSLDLAIRLVNSNDCTPLTNMFVHVWHADALGVYSGVPDLAELFVERMRQENKTLPPFWGPEGAYEGRRPGGPGGPGGPGGPGGPGDMEMPGRPTPVNNERFLRGYQVTNEAGEVNFKTIIPGWYTGRSLHIHVEVYSKNTTEPGEVNYIGQIFFKDDLPAELKLIEPYSLNQNILVLNPQDGIYNFAHGEQTKIQLENRETGYFGSMTFGINPNAH
B3: TuDOG16 (Tetranychus urticae) (protein)
chain: HSERPGKFLEHDRSIVNCARYKREANQHTCVLAPFATEGPYFLADDLERSDITDGQTGVNLDLNLKLTNAKDCSPLSGYFVHIWNANALGHYSGVQEFNKFPKQTFRPKPIYDTRWLRGYQVTNEDGEVNFKTIVPGWYYGRCLHIHVEVYSKNTTDTNAITYIGQLYFKRELPVQLKLVEPYSSNQNELKFNEQDKVFNGMHGNDTITELVFEENNAKTSFILALDPTVTTLTNGTVVN
notes: as for B1
B4: TuDOG1 (Tetranychus urticae) (protein)
chain: DVHRRGKFLPHDRTVINCASLNRKAHQHSSVLAPFTTEGPFFLPDDLKRSDITDGQKGIPLELTIKLTNAKDCTPISNFFIHAWQTNATGVYSGIDEDTAPLSGFRPTPVNRDRSLRGYQETDANGEVKFLTILPGWYSGRAIHIHIEVYAKDITDENKITYIGQFYFEHDFPLKLRKIYPYSTNTQRIIFNEQDYYYVHDHGDETTLDLKHNGAKFSSYATVAIDPTVTVHVQ
notes: as for B1
B5: TuDOG7 (Tetranychus urticae) (protein)
chain: ERSIEILNHDATVIDCARYKREANQHKCVITPFTTEGPYFLPDDYERSDITDGYTGVNLNLTLLLTNAKDCSPLSNYYVHIWNANAMGHYSGVKEFNFFDHPTFRPKPINNLRFLRGYQITNEDGLVNFNTIIPGWYFGRCIHIHVEIYDKNTTDGHAVSYIGQLYFNREMPAALKLIDPYSQNNNELTLNDQDIVFALSRGSDTILELIPEGNGYSASYVLSIDPTVKVENSVLPFEDPRNVSFIEH

substrate: Cc1ccc(O)c(O)c1; assay: purified protein; assay type: biochemical, Tetranychus urticae; details: 0.1 M PBS pH 7.5, 25 °C, O2 co-substrate (air), Fe enzyme, kcat corrected for iron content

| Molecule | Km | Vmax | kcat | kcat/Km |
| --- | --- | --- | --- | --- |
| B1 | 153.9 ± 24.6 µM | 0.58 µM/min | 0.0553 ± 0.00382 s⁻¹ | 367 ± 150 M⁻¹ s⁻¹ |
| B2 | 117.4 ± 46.5 µM | 1.77 µM/min | 0.261 ± 0.0546 s⁻¹ | 2230 ± 1170 M⁻¹ s⁻¹ |
| B3 | 52.4 ± 19.6 µM | 0.14 µM/min | 0.0188 ± 0.00268 s⁻¹ | 367 ± 133 M⁻¹ s⁻¹ |
| B4 | 15.1 ± 2.7 µM | 0.12 µM/min | 0.0324 ± 0.0027 s⁻¹ | 2150 ± 1000 M⁻¹ s⁻¹ |
| B5 | 62.2 ± 42.3 µM | 0.53 µM/min | 0.0282 ± 0.0122 s⁻¹ | 450 ± 283 M⁻¹ s⁻¹ |

tested on: Oc1ccc(Cl)cc1O; assay: purified protein; details: 0.1 M PBS pH 7.5, 25 °C, O2 co-substrate (air), Fe enzyme, kcat corrected for iron content

| Molecule | Km | Vmax | kcat | kcat/Km |
| --- | --- | --- | --- | --- |
| TuDOG15 (Tetranychus urticae) | 72.0 ± 21.3 µM | 0.62 µM/min | 0.0915 ± 0.0133 s⁻¹ | 1270 ± 617 M⁻¹ s⁻¹ |
| TuDOG16 (Tetranychus urticae) | 154.3 ± 20.9 µM | 0.31 µM/min | 0.0416 ± 0.00135 s⁻¹ | 267 ± 66.7 M⁻¹ s⁻¹ |
| TuDOG11 (Tetranychus urticae) | 25.2 ± 4.6 µM | 0.09 µM/min | 0.00858 ± 0.00095 s⁻¹ | 333 ± 200 M⁻¹ s⁻¹ |
| TuDOG1 (Tetranychus urticae) | 21.2 ± 7.4 µM | 0.08 µM/min | 0.0216 ± 0.0027 s⁻¹ | 1020 ± 367 M⁻¹ s⁻¹ |
| TuDOG7 (Tetranychus urticae) | 115.2 ± 35.7 µM | 0.96 µM/min | 0.051 ± 0.0122 s⁻¹ | 450 ± 350 M⁻¹ s⁻¹ |

substrate: Oc1ccccc1O; assay: purified protein; details: 0.1 M PBS pH 7.5, 25 °C, O2 co-substrate (air), Fe enzyme, kcat corrected for iron content

| Molecule | Km | Vmax | kcat | kcat/Km |
| --- | --- | --- | --- | --- |
| B1 | 64.9 ± 24.3 µM | 0.56 µM/min | 0.0534 ± 0.00382 s⁻¹ | 817 ± 150 M⁻¹ s⁻¹ |
| B2 | 91.0 ± 21.2 µM | 0.09 µM/min | 0.0133 ± 0.00148 s⁻¹ | 150 ± 66.7 M⁻¹ s⁻¹ |
| B3 | 51.0 ± 23.4 µM | 0.06 µM/min | 0.00805 ± 0.00135 s⁻¹ | 150 ± 50 M⁻¹ s⁻¹ |
| B4 | 15.2 ± 4.5 µM | 0.14 µM/min | 0.0378 ± 0.0027 s⁻¹ | 2480 ± 600 M⁻¹ s⁻¹ |
| B5 | 74.9 ± 30.9 µM | 0.42 µM/min | 0.0223 ± 0.00318 s⁻¹ | 300 ± 100 M⁻¹ s⁻¹ |
